{"source": "paper PMC11415702", "target": "Complement factor H (CFH) (human, UniProt P08603 19-1231)", "sequence (P08603 19-1231)": "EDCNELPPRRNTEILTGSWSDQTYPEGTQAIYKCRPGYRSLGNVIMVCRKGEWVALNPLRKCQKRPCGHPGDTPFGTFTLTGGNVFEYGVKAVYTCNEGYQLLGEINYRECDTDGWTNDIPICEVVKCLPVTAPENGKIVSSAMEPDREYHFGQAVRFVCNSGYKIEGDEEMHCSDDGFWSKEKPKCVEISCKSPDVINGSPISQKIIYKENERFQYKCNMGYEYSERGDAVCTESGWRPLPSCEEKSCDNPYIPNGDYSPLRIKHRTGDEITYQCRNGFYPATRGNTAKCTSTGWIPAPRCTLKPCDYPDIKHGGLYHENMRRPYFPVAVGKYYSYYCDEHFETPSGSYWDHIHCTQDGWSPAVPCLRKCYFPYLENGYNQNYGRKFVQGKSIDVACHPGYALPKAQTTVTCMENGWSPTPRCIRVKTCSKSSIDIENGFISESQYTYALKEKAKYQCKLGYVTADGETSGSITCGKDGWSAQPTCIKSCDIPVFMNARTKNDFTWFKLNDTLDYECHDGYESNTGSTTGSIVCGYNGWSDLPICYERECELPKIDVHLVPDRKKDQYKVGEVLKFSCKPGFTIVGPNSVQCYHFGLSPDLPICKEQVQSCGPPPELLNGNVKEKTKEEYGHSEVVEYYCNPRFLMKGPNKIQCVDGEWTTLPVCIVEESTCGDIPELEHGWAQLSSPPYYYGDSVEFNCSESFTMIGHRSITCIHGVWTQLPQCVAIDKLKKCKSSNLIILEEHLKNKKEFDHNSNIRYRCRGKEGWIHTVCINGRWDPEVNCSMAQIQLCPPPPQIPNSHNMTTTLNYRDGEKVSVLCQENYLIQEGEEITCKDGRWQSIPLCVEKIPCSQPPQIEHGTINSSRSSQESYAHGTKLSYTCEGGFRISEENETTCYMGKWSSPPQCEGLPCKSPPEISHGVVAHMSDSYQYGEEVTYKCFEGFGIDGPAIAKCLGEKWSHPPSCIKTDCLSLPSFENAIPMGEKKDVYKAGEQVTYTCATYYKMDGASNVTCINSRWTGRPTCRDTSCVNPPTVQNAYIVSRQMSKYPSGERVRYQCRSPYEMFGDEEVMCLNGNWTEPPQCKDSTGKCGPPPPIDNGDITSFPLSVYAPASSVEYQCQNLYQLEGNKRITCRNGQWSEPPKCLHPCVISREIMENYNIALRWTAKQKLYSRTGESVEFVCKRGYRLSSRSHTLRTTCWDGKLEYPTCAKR", "experiment": "interdigitated electrode current-volt sandwich assay"}
{"binder": "GCGGAGCGTGGCAGG (ssDNA, biotin (end not stated))", "note": "[anti-tau DNA aptamer]", "values": [{"measurement": "binding result", "value": "no binding"}]}
